Experimental data taken from article PMC2141769.

Columns and labels:
[1] = molecular target: EC0, mutant E-cadherin protein that completely lacks the cytoplasmic domain; experiment: cross-linking
[2] = molecular target: EΔC71, mutant E-cadherin polypeptide with COOH-terminal deletion of 71 amino acid residues; experiment: co-IP
[3] = molecular target: EΔC37, mutant E-cadherin polypeptide with COOH-terminal deletion of 37 amino acid residues; experiment: co-IP

EC0, mutant E-cadherin protein that completely lacks the cytoplasmic domain, sequence (P09803 152-704, stated change not applied): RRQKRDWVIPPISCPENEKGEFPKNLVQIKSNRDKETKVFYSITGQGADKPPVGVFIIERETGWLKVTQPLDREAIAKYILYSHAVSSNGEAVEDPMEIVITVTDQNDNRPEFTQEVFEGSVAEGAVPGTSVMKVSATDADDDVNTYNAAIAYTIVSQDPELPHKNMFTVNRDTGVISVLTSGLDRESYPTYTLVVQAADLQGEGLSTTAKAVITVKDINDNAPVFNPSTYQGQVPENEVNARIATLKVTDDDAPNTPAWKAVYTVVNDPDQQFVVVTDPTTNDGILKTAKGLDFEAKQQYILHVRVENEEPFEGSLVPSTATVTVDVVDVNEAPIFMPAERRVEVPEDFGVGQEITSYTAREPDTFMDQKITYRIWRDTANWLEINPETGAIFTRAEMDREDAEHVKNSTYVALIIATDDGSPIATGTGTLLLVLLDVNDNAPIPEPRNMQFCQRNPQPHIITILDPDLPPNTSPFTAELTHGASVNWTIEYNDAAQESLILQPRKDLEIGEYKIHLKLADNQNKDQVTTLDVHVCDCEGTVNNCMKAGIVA

| Molecule | stoichiometry N [1] | amount of p120 coprecipitated, percent of EK cells [2] [%] | amount of p120 coprecipitated, percent of EK cells [3] [%] |
| --- | --- | --- | --- |
| EC0, mutant E-cadherin protein that completely lacks the cytoplasmic domain (domain or fragment) | 2 |  |  |
| p120 (natural protein) MDDSEVESTASILASVKEQEAQFEKLTRALEEERRHVSAQLERVRVSPQDANPLMANGTLTRRHQNGRFVGDADLERQKFSDLKLNGPQDHSHLLYSTIPRMQEPGQIVETYTEEDPEGAMSVVSVETSDDGTTRRTETTVKKVVKTVTTRTVQPVAMGPDGLPVDASSVSNNYIQTLGRDFRKNGNGGPGPYVGQAGTATLPRNFHYPPDGYSRHYEDGYPGGSDNYGSLSRVTRIEERYRPSMEGYRAPSRQDVYGPQPQVRVGGSSVDLHRFHPEPYGLEDDQRSMGYDDLDYGMMSDYGTARRTGTPSDPRRRLRSYEDMIGEEVPSDQYYWAPLAQHERGSLASLDSLRKGGPPPPNWRQPELPEVIAMLGFRLDAVKSNAAAYLQHLCYRNDKVKTDVRKLKGIPVLVGLLDHPKKEVHLGACGALKNISFGRDQDNKIAIKNCDGVPALVRLLRKARDMDLTEVITGTLWNLSSHDSIKMEIVDHALHALTDEVIIPHSGWEREPNEDCKPRHIEWESVLTNTAGCLRNVSSERSEARRKLRECDGLVDALIFIVQAEIGQKDSDSKLVENCVCLLRNLSYQVHREIPQAERYQEAAPNVANNTGPHAASCFGAKKGKDEWFSRGKKPIEDPANDTVDFPKRTSPARGYELLFQPEVVRIYISLLKESKTPAILEASAGAIQNLCAGRWTYGRYIRSALRQEKALSAIADLLTNEHERVVKAASGALRNLAVDARNKELIGKHAIPNLVKNLPGGQQNSSWNFSEDTVISILNTINEVIAENLEAAKKLRETQGIEKLVLINKSGNRSEKEVRAAALVLQTIWGYKELRKPLEKEGWKKSDFQVNLNNASRSQSSHSYDDSTLPLIDRNQKSDKKPDREEIQMSNMGSNTKSLDNNYSTPNERGDHNRTLDRSGDLGDMEPLKGTTPLMQDEGQESLEEELDVLVLDDEGGQVSYPSMQKI |  | 10 | 10 |
